Source: paper doi:10.1101/756874 (2019)
No end group written: not given here. *: point of attachment. TAMRA = 5-carboxytetramethylrhodamine, CN(C)c1ccc2c(-c3ccc(C(=O)*)cc3C(=O)[O-])c3ccc(=[N+](C)C)cc-3oc2c1

B1: MCL-1 (UniProt:Q07820, residues 168–327, C286S) (domain or fragment)
chain: GSEEEEDELYRQSLEIISRYLREQATGAKDTKPMGRSGATSRKALETLRRVGDGVQRNHETAFQGMLRKLDIKNEDDVKSLSRVMIHVFSDGVTNWGRIVTLISFGAFVAKHLKTINQESSIEPLAESITDVLVRTKRDWLVKQRGWDGFVEFFHVEDLEGG
B2: BAK (UniProt:Q16611, residues 16–185, C166S) (domain or fragment)
chain: EPALPSASEEQVAQDTEEVFRSYVFYRHQQEQEAEGVAAPADPEMVTLPLQPSSTMGQVGRQLAIIGDDINRRYDSEFQTMLQHLQPTAENAYEYFTKIATSLFESGINWGRVVALLGFGYRLALHVYQHGLTGFLGQVTRFVVDFMLHHSIARWIAQRGGWVAALNLGN

How the values were obtained:
Experiment in all cases: without detergent
[1] = biological target: B2
[2] = biological target: B2; remark: listed apart in the source
BAXBH3 = biological target: BAXBH3
MCL-1BH3 = biological target: MCL-1BH3
[3] = biological target: B1
[4] = biological target: B1; remark: listed apart in the source

Row | Kd [1] [µM] | koff [2] [s⁻¹] | Kd (BAXBH3) [µM] | Kd (MCL-1BH3) [mM] | Binder | further results
1 | 230 | 1400 |  |  | {TAMRA}-SESQEDIIRNIARHLAQVGDSMDRSIPPGLVNGLA [BIDBH3, TAMRA-labelled 35-residue peptide (UniProt:P55957, residues 76–110)] | 
2 | 1000 |  |  |  | {TAMRA}-ALQPSSTMGQVGRQLAIIGDDINRRYDSEFQTMLQ [BAKBH3, TAMRA-labelled 35-residue peptide (UniProt:Q16611, residues 64–98, P64A)] | 
3 |  |  | 0.071 | 0.000182 | B1 | koff (BAXBH3): 0.613 s⁻¹; koff (MCL-1BH3): 0.52 s⁻¹
4 |  |  | 500 | 5 | B2 | 
5 | 220 | 230 |  |  | {TAMRA}-RGEEEQWAREIGAQLRRAADDLNAQYERRRQEEQQ [PUMABH3, TAMRA-labelled 35-residue peptide (UniProt: Q9BXH1, residues 127–161, M144A)] | Kd [3]: 0.174 nM; koff [4]: 0.00246 s⁻¹
